Article PMC8113879, “Molecular properties of human guanylate cyclase–activating protein 2 (GCAP2) and its retinal dystrophy–associated variant G157R” (The Journal of Biological Chemistry, 2021)
Substitutions are numbered along the chain they refer to. Names and notes keep the numbering of the source.

B1: nonmyristoylated human guanylate cyclase-activating protein 2 (natural protein, UniProt Q9UMX6 1-200, looked up)
chain: MGQEFSWEEAEAAGEIDVAELQEWYKKFVMECPSGTLFMHEFKRFFKVTDDEEASQYVEGMFRAFDKNGDNTIDFLEYVAALNLVLRGTLEHKLKWTFKIYDKDGNGCIDRLELLNIVEGIYQLKKACRRELQTEQGQLLTPEEVVDRIFLLVDENGDGQLSLNEFVEGARRDKWVMKMLQMDMNPSSWLAQQRRKSAMF
notes: cDNA cloned into pET-11a(+) with NdeI and NheI; No tag is mentioned; also called nmGCAP2; nonmyristoylated GCAP2
B2: myristoylated human guanylate cyclase-activating protein 2 (natural protein, UniProt Q9UMX6 1-200, looked up)
chain: B1 chain
modifications: myristic acid covalently bound to the N-terminal Gly
notes: cDNA cloned into pET-11a(+) with NdeI and NheI; Myristoylation was confirmed by MALDI-TOF (difference of 212.2 Da to nmGCAP2); Surmised: the first methionine is removed so that Gly2 is the myristoylated N-terminus; also called mGCAP2; myristoylated GCAP2
B3: myristoylated human GCAP2 G157R variant (natural protein, UniProt Q9UMX6 1-200, looked up)
chain: B1 chain with G157R
modifications: myristic acid covalently bound to the N-terminal Gly
notes: The variant occurs in patients (Japanese families with retinitis pigmentosa); also called G157R GCAP2; IRD-associated G157R variant

Key:
GCAP2 (Bos taurus) = GCAP2 (Bos taurus) (UniProt P51177); experiment: sedimentation equilibrium; settings: cited from earlier work
[1] = biological target: the molecule itself; experiment: MALDI-TOF MS; 1.0 mg/ml protein in 20 mM Tris HCl pH 7.5, 150 mM KCl, 1 mM DTT, desalted by ZipTip C4, sinapinic acid matrix; dimer peaks beside the monomer peak
[2] = biological target: the molecule itself; experiment: SEC; analytical SEC, Superose 12 10/300GL, 20 mM Tris HCl pH 7.5, 150 mM KCl, 1 mM DTT, 1 mM Mg2+ + 500 uM Ca2+, 25 C; ~40 uM protein or 5-80 uM for the titration; apparent KD from a hyperbolic fit of apparent mass against concentration; monomer to dimer
[3] = biological target: the molecule itself; experiment: SEC; analytical SEC, Superose 12 10/300GL, 20 mM Tris HCl pH 7.5, 150 mM KCl, 1 mM DTT, 500 uM EGTA + 1 mM Mg2+ (no Ca2+), 25 C; ~40 uM protein or 5-80 uM for the titration; apparent KD from a hyperbolic fit of apparent mass against concentration; monomer to dimer

Chain of GCAP2 (Bos taurus) (P51177 2-204): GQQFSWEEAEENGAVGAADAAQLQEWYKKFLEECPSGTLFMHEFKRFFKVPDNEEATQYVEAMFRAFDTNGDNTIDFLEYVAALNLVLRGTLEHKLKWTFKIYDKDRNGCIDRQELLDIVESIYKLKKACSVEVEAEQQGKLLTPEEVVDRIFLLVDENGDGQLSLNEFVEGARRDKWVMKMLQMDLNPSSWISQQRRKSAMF

Molecule	Kd (GCAP2 (Bos taurus))	stoichiometry N [1]	Kd [2]	Kd [3]
GCAP2 (from UniProt P51177)	52 µM	–	–	–
B1	–	2	–	–
B2	–	2	55.4 µM	< 1 µM
B3	–	2	–	–
